{"source": "paper doi:10.1101/2021.12.29.474402", "target": "SARS-CoV-2 Omicron (B.1.1.529) spike, prefusion-stabilized soluble trimeric ectodomain (S-trimer) (SARS-CoV-2 | bacteriophage T4) (UniProt P0DTC2)", "assay": "cryo-EM structure", "data": [{"substance": "human ACE2 (from UniProt Q9BYF1) (receptor)", "values": [{"measurement": "stoichiometry N (ACE2 per S-trimer)", "value": 2}]}]}
